Experimental data: patent publication US20120288511A1 (INDIANA UNIVERSITY RESEARCH AND TECHNOLOGY, published 2012)
Like-named read-outs stand apart in the source and are kept apart here. Non-standard residues stand in square brackets, D forms with d. No end group written: not given here. Aib = CC(C)(N)C(=O)O

Columns and labels:
Experiment in all cases: cell-based or functional assay
GLP-1 receptor [1] = molecular target: T1, GLP-1 receptor (human, UniProt P43220 24-463)
glucagon receptor [2] = molecular target: T2, glucagon receptor (human, UniProt P47871 26-477)
T2 sequence (P47871 26-477): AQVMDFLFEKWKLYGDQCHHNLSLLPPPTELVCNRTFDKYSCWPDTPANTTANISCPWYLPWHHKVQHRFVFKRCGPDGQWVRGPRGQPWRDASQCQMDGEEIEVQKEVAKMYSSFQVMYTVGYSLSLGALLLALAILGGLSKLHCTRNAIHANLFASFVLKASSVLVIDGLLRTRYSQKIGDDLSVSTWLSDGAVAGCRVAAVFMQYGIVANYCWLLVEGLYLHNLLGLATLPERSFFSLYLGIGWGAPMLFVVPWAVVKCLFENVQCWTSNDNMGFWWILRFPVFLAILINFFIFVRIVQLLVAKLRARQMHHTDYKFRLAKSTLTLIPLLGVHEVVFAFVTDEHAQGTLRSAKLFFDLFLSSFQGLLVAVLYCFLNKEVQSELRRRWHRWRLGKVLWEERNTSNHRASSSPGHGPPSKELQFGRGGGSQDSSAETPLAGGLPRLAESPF

GLP-1 receptor [3] = molecular target: T1, GLP-1 receptor; remark: listed apart in the source
glucagon receptor [4] = molecular target: T2, glucagon receptor; remark: listed apart in the source
GLP-1 receptor [5] = molecular target: T1, GLP-1 receptor; remark: listed apart in the source
glucagon receptor [6] = molecular target: T2, glucagon receptor; remark: listed apart in the source
GLP-1 receptor [7] = molecular target: T1, GLP-1 receptor; remark: listed apart in the source
glucagon receptor [8] = molecular target: T2, glucagon receptor; remark: listed apart in the source
GLP-1 receptor [9] = molecular target: T1, GLP-1 receptor; remark: listed apart in the source
glucagon receptor [10] = molecular target: T2, glucagon receptor; remark: listed apart in the source
GLP-1 receptor [11] = molecular target: T1, GLP-1 receptor; remark: listed apart in the source
glucagon receptor [12] = molecular target: T2, glucagon receptor; remark: listed apart in the source
GLP-1 receptor [13] = molecular target: T1, GLP-1 receptor; remark: listed apart in the source
glucagon receptor [14] = molecular target: T2, glucagon receptor; remark: listed apart in the source

B1: Glucagon Analog 24 (peptide)
peptide: HSQGTFTSDYSKYLDEKRAKEFVC(PEG 40 kDa)WLMNT-NH2
modifications: also: DPP-IV-protecting residue at position 1 or 2 not given here, non-covalent salt bridge Lys17/Glu21
GLP-1 receptor [1]
  % Relative Activity vs native GLP-1: 5%
  EC50 (cAMP luciferase reporter): 1.58 nM
Glucagon receptor [2]
  % Relative Activity vs native glucagon: 7%
  EC50 (cAMP luciferase reporter): 0.676 nM

B2: Glucagon Analog 51 (peptide)
peptide: HSQGTFTSDKSKYLDERAAQDFVQWLLDT-NH2
modifications: not fully specified; also: position 2 Aib or D-Ser
GLP-1 receptor [3]
  % Relative Activity vs native GLP-1: 949%
  EC50 (cAMP luciferase reporter): 0.004 nM
Glucagon receptor [4]
  % Relative Activity vs native glucagon: 314%
  EC50 (cAMP luciferase reporter): 0.004 nM
GLP-1 receptor [5]
  % Relative Activity vs native GLP-1: 949%
  EC50 (cAMP luciferase reporter): 0.0039 nM
Glucagon receptor [6]
  % Relative Activity vs native glucagon: 314%
  EC50 (cAMP luciferase reporter): 0.0035 nM
GLP-1 receptor [7]
  EC50 (cAMP luciferase reporter): 0.0039 nM
Glucagon receptor [8]
  EC50 (cAMP luciferase reporter): 0.0035 nM

B3: Glucagon Analog 20 (peptide)
peptide: HSQGTFTSDYSKYLDEKRAKEFVQWLMNT-NH2
modifications: also: DPP-IV-protecting residue at position 1 or 2: D-Ser, Aib or Dmia, salt bridge Lys17/Glu21 plus salt bridge 16/20 or α,α-disubstituted residue at 16
GLP-1 receptor [1]
  EC50 (cAMP luciferase reporter): 0.284 nM
Glucagon receptor [2]
  EC50 (cAMP luciferase reporter): 0.054 nM
GLP-1 receptor [9]
  EC50 (cAMP luciferase reporter): 0.284 nM
Glucagon receptor [10]
  EC50 (cAMP luciferase reporter): 0.054 nM

B4: Glucagon Analog 29 (peptide)
peptide: HSQGTFTSDKSKYLDERAAQDFVC(PEG 40 kDa)WLLDT-NH2
modifications: not fully specified (residue 10); also: Lys10 acylated, acyl group not given here
GLP-1 receptor [3]
  % Relative Activity vs native GLP-1: 43%
  EC50 (cAMP luciferase reporter): 0.084 nM
Glucagon receptor [4]
  % Relative Activity vs native glucagon: 40%
  EC50 (cAMP luciferase reporter): 0.085 nM
GLP-1 receptor [9]
  EC50 (cAMP luciferase reporter): 0.084 nM
  percent in parentheses (not explained): 16%
Glucagon receptor [10]
  EC50 (cAMP luciferase reporter): 0.085 nM
  percent in parentheses (not explained): 74%
GLP-1 receptor [7]
  EC50 (cAMP luciferase reporter): 0.084 nM
Glucagon receptor [8]
  EC50 (cAMP luciferase reporter): 0.085 nM

B5: Glucagon Analog D (peptide)
peptide: H[Aib]QGTFTSDYSKYLDEQAAKEFIAWLMNT-NH2
GLP-1 receptor [11]
  EC50 (cAMP luciferase reporter): 0.02 nM
Glucagon receptor [12]
  EC50 (cAMP luciferase reporter): 0.85 nM

B6: Peptide 17 (peptide)
peptide: HSQKTFTEDYSKYLDSRRAQDFVQWLMNT
modifications: not fully specified; also: further groups not given here
GLP-1 receptor [13]
  EC50 (cAMP luciferase reporter): 148 nM
Glucagon receptor [14]
  EC50 (cAMP luciferase reporter): 862 nM

B7: Glucagon Analog A (peptide)
peptide: HSQGTFTSDYSKYLDEEAVRLFIEWLMNT-NH2
modifications: not fully specified (residue 2)
GLP-1 receptor [11]
  EC50 (cAMP luciferase reporter): 0.009 nM
Glucagon receptor [12]
  EC50 (cAMP luciferase reporter): 0.061 nM

B8: Glucagon Analog C (peptide)
peptide: H[Aib]QGTFTSDYSKYLDEEAVRLFIEWLMNT-NH2
GLP-1 receptor [11]
  EC50 (cAMP luciferase reporter): 0.006 nM
Glucagon receptor [12]
  EC50 (cAMP luciferase reporter): 0.17 nM

B9: Peptide 3 (peptide)
peptide: HSQGTFTSDYSKYLDKRRAEDFVQWLMNT
modifications: not fully specified; also: further groups not given here
GLP-1 receptor [13]
  EC50 (cAMP luciferase reporter): 1.15 nM
Glucagon receptor [14]
  EC50 (cAMP luciferase reporter): 0.34 nM

B10: Glucagon Analog B (peptide)
peptide: HSQGTFTSDYSKYLDEQAAKEFIAWLMNT-NH2
modifications: not fully specified (residue 2)
GLP-1 receptor [11]
  EC50 (cAMP luciferase reporter): 0.014 nM
Glucagon receptor [12]
  EC50 (cAMP luciferase reporter): 0.072 nM
